How the values were obtained:
[1] = molecular target: the molecule itself; experiment: crystal structure; hGALT 20 mg/ml pre-incubated with 5 mM UDP-Glc; vapour diffusion at 20 °C, 0.2 M ammonium sulphate, 30% PEG 8000; two chains in the asymmetric unit; dimer interactions analysed with PISA
[2] = molecular target: the molecule itself; experiment: small angle X-ray scattering (SAXS); HPLC-SAXS at 10 mg/ml in 10 mM HEPES pH 7.5, 150 mM NaCl, 0.5 mM TCEP; ab initio envelopes by GASBOR

Row | Protein | stoichiometry N [1] | stoichiometry N [2]
1 | uridylylated human galactose 1-phosphate uridylyltransferase (UMP-hGALT) (enzyme, UniProt P07902 1-379, looked up, UMP covalently bound to His186 (uridylylated), human galactose 1-phosphate uridylyltransferase (GALT, EC 2.7.7.12), full length, from a cDNA clone with the p.Asn314Asp polymorphism; Crystallised after pre-incubation with 5 mM UDP-Glc; for SAXS made by overnight incubation with 2 mM UDP-glucose; also called UMP-GALT; uridylylated hGALT; source: incubated with UDP-glucose; not shown: His6, N-terminal, cleaved) MSRSGTDPQQRQQASEADAAAATFRANDHQHIRYNPLQDEWVLVSAHRMKRPWQGQVEPQLLKTVPRHDPLNPLCPGAIRANGEVNPQYDSTFLFDNDFPALQPDAPSPGPSDHPLFQAKSARGVCKVMCFHPWSDVTLPLMSVPEIRAVVDAWASVTEELGAQYPWVQIFENKGAMMGCSNPHPHCQVWASSFLPDIAQREERSQQAYKSQHGEPLLMEYSRQELLRKERLVLTSEHWLVLVPFWATWPYQTLLLPRRHVRRLPELTPAERDDLASIMKKLLTKYDNLFETSFPYSMGWHGAPTGSEAGANWDHWQLHAHYYPPLLRSATVRKFMVGYEMLAQAQRDLTPEQAAERLRALPEVHYHLGQKDRETATIA | 2 | 
2 | apo human galactose 1-phosphate uridylyltransferase (apo-hGALT) (enzyme, UniProt P07902 1-379, looked up, human galactose 1-phosphate uridylyltransferase (GALT, EC 2.7.7.12), full length, from a cDNA clone with the p.Asn314Asp polymorphism; De-uridylylated form made by overnight incubation with 2 mM glucose 1-phosphate; source: incubated with glucose 1-phosphate; not shown: His6, N-terminal, cleaved) MSRSGTDPQQRQQASEADAAAATFRANDHQHIRYNPLQDEWVLVSAHRMKRPWQGQVEPQLLKTVPRHDPLNPLCPGAIRANGEVNPQYDSTFLFDNDFPALQPDAPSPGPSDHPLFQAKSARGVCKVMCFHPWSDVTLPLMSVPEIRAVVDAWASVTEELGAQYPWVQIFENKGAMMGCSNPHPHCQVWASSFLPDIAQREERSQQAYKSQHGEPLLMEYSRQELLRKERLVLTSEHWLVLVPFWATWPYQTLLLPRRHVRRLPELTPAERDDLASIMKKLLTKYDNLFETSFPYSMGWHGAPTGSEAGANWDHWQLHAHYYPPLLRSATVRKFMVGYEMLAQAQRDLTPEQAAERLRALPEVHYHLGQKDRETATIA |  | 2
3 | human galactose 1-phosphate uridylyltransferase variant p.Gln188Arg, hGALT(p.Q188R) (enzyme, UniProt P07902 1-379, looked up, As purified only the apo enzyme was seen by mass spectrometry; not shown: His6, N-terminal, cleaved) MSRSGTDPQQRQQASEADAAAATFRANDHQHIRYNPLQDEWVLVSAHRMKRPWQGQVEPQLLKTVPRHDPLNPLCPGAIRANGEVNPQYDSTFLFDNDFPALQPDAPSPGPSDHPLFQAKSARGVCKVMCFHPWSDVTLPLMSVPEIRAVVDAWASVTEELGAQYPWVQIFENKGAMMGCSNPHPHCRVWASSFLPDIAQREERSQQAYKSQHGEPLLMEYSRQELLRKERLVLTSEHWLVLVPFWATWPYQTLLLPRRHVRRLPELTPAERDDLASIMKKLLTKYDNLFETSFPYSMGWHGAPTGSEAGANWDHWQLHAHYYPPLLRSATVRKFMVGYEMLAQAQRDLTPEQAAERLRALPEVHYHLGQKDRETATIA |  | 2

— article PMC5081055, “Molecular basis of classic galactosemia from the structure of human galactose 1-phosphate uridylyltransferase” (Human Molecular Genetics, 2016)
